Measurements published in paper PMC3454426.

Tests used:
[1] = target: Moniliophthora perniciosa necrosis- and ethylene-inducing protein 2 (MpNep2) (Moniliophthora perniciosa); assay: SEC; preparative Sephacryl S100 16/60 and analytical UFLC on Superdex 200 or 75, 0.7 mL/min; 20 mM phosphate pH 7.4, 80 mM NaCl; also at different ionic strengths and after 1 mM 2-mercaptoethanol
[2] = target: Moniliophthora perniciosa necrosis- and ethylene-inducing protein 2 (MpNep2) (Moniliophthora perniciosa); assay: dynamic light scattering; monomer 120 uM and dimer 45 uM in 20 mM phosphate, 80 mM NaCl, pH 7.4, 25°C

Moniliophthora perniciosa necrosis- and ethylene-inducing protein 2 (MpNep2) (natural protein)
stoichiometry N [1]: 2
stoichiometry N [2]: 2
